From US20190002841A1 come the findings set out here.

The target of assay [1] is AAV3B capsid (vector AAV2/3B.CB7.CI.ffluciferase.RBG) (Adeno-associated virus 3B). Nature of the assay: AVB Sepharose HiTrap column, AAV3B against AAV3B-NKDKLN.
In assay [2] the target is AAV3B-NKDKLN capsid (AAV3B with SPAKFA replaced by NKDKLN of AAV9) (Adeno-associated virus 3B). Described as above.
Assay [3] has as its target AAV3B capsid (vector AAV2/3B.CB7.CI.ffluciferase.RBG) (Adeno-associated virus 3B). As to the kind of experiment: AVB Sepharose HiTrap column, share washed off in wash 1.
In assay [4] the target is AAV3B-NKDKLN capsid (AAV3B with SPAKFA replaced by NKDKLN of AAV9) (Adeno-associated virus 3B). The assay is described as above.
Assay [5] has as its target AAV3B capsid (vector AAV2/3B.CB7.CI.ffluciferase.RBG) (Adeno-associated virus 3B). As to the kind of experiment: AVB Sepharose HiTrap column, unbound share in flow-through.
Assay [6] addresses AAV3B-NKDKLN capsid (AAV3B with SPAKFA replaced by NKDKLN of AAV9) (Adeno-associated virus 3B). The assay is described as above.
The target of assay [7] is AAVrh64R1 capsid (vectors AAV2/rh.64R1.CMV.PI.EGFP.WPRE.bGH and rh.64R1 with CB7.CI.ffluciferase.RBG) (Adeno-associated virus rh.64R1). As to the kind of experiment: AVB Sepharose HiTrap column, qPCR of fractions; mix rh.64R1+rh.10. For orientation: Real-time PCR tracks product formation cycle by cycle.
The target of assay [8] is AAV3B capsid (vector AAV2/3B.CB7.CI.ffluciferase.RBG) (Adeno-associated virus 3B). Nature of the assay: AVB Sepharose HiTrap column, share washed off in wash 2 (1 M NaCl).
Assay [9] concerns the target AAV3B-NKDKLN capsid (AAV3B with SPAKFA replaced by NKDKLN of AAV9) (Adeno-associated virus 3B). Described as above.
Assay [10] has as its target AAVrh10 capsid (vector AAV2/rh.10.CMV.PI.Cre.RBG) (Adeno-associated virus rh.10). Nature of the assay: AVB Sepharose HiTrap column, qPCR of fractions; average of two runs.
The target of assay [11] is AAV8 capsid (vectors AAV2/8.CMV.ffluciferase.SV40 and AAV8 with CB7.CI.ffluciferase.RBG) (Adeno-associated virus 8). As to the kind of experiment: AVB Sepharose HiTrap column, qPCR of fractions; mix AAV8+hu.37+rh.10.
The target of assay [12] is AAVhu37 capsid (vector AAV2/hu.37.TBG.EGFP.bGH) (Adeno-associated virus hu.37). The description is as above.
Assay [13] deals with AAV3B capsid (vector AAV2/3B.CB7.CI.ffluciferase.RBG) (Adeno-associated virus 3B). As to the kind of experiment: AVB Sepharose HiTrap column, qPCR of fractions; clarified AAV3B product.
Assay [14] has as its target AAV8 capsid (vectors AAV2/8.CMV.ffluciferase.SV40 and AAV8 with CB7.CI.ffluciferase.RBG) (Adeno-associated virus 8). Nature of the assay: AVB Sepharose HiTrap column, clarified supernatant, wild type against SPAKFA mutant.
In assay [15] the target is AAV8-SPAKFA capsid (AAV8 with NQSKLN replaced by SPAKFA) (Adeno-associated virus 8). The assay is described as above.
The target in assay [16] is AAV9 capsid (vector with CB7.CI.ffluciferase.RBG) (Adeno-associated virus 9). The assay is described as above.
Assay [17] addresses AAV9-SPAKFA capsid (AAV9 with NKDKLN replaced by SPAKFA) (Adeno-associated virus 9). The assay is described as above.
Assay [18] concerns the target AAVrh64R1 capsid (vectors AAV2/rh.64R1.CMV.PI.EGFP.WPRE.bGH and rh.64R1 with CB7.CI.ffluciferase.RBG) (Adeno-associated virus rh.64R1). Described as above.
Assay [19] has as its target rh.64R1-SPAKFA capsid (rh.64R1 with NQAKLN replaced by SPAKFA) (Adeno-associated virus rh.64R1). The assay is described as above.

As to “AVB Sepharose High Performance affinity resin ligand (14 kD fragment from a single chain llama antibody expressed in yeast) (VHH)”, the elution fraction yield (%) is 98% in assay [1] and 87% in [2]. Moreover, the results for the % of vector in the wash 1 (W1) fraction in assay [3] and in [4] were 0% and 0.1%, respectively. Besides, the figures for the % of vector in the flow-through (FT) fraction in assay [5] and in assay [6] were 1.3% and 8.2%, respectively. Moreover, the % of loaded vector genome in the elution fraction was found to be 22% in [7], 84% in assay [10], 20% in assay [11] and 82% in assay [12]. For the same substance, the % of vector in the wash 2 (W2) fraction in assay [8] amounted to 0.3%; in assay [9], 4.6%. This substance showed a % of vector genomes recovered in the elution fraction in assay [13] of 98%. The % recovery of loaded vector in the elution fraction (of total fractions) was 30% in [14]; 93% in assay [15]; 0.6% in assay [16]; 51% in assay [17]; 18% in [18]; 91% in [19].
